Experimental data taken from patent publication US20230020546A1, “APPLICATION OF PROGESTIN IN PREPARATION OF DRUG INHIBITING CYTOKINE STORM” (SHENZHEN EVERGREEN THERAPEUTICS CO., LTD., priority 2020, published 2023).

Tests used:
[1] = tested on: circulating cytokines in hu-SCID mice; test: Circulating cytokines in plasma of hu-SCID mice after OKT3 injection (multiplex immunoassay); type: in vivo; details: for Inhibition of OKT3-induced immune (cytokine) storm in an animal model: hu-SCID mice, overall conclusion; for IFN-γ Concentration / IL-1β Concentration / IL-2 Concentration / IL-4 Concentration / IL-5 Concentration / IL-6 Concentration / IL-10 Concentration / TNF-α Concentration: OKT3 10 μg IP alone
Protocol: […] A multiplex immunoassay system was then applied to the collected heparinized plasma to analyze cytokines. Cytokines measured included human IL-1β, IL-2, IL-4, IL-5, IL-6, IL-10, IL-12 (p70), IL-13, IL-17, IFN-γand TNF-α. […] The activation markers thereof were then analyzed by flow cytometry. Human peripheral blood mononuclear cells in the mouse spleen were blocked with 2.4G2 and then stained with fluorescently labeled CD69, CD25, CD45 and CD3.
After antibody injection, in order to determine if a cytokine storm was induced, we detected cytokines (human IL-1β, IL-2, IL-4, IL-5, IL-6, IL-10, IL-12 (p70), IL-13, IL17, IFN-γ and TNF-α) in the plasma of the hu-SCID mice.
On days 8 and 9 after intravenous injection of PBMCs in humanized mice (48 hours and 24 hours before antibody injection), a candidate drug PR2005 (5 mg/kg) was injected intraperitoneally to the animals. […] The results are detailed in Tables 1-4.

[2] = tested on: hu-SCID mice; test: Rectal temperature after antibody injection in hu-SCID mice; type: in vivo
[3] = tested on: hu-SCID mice; test: Clinical symptoms / clinical score after antibody injection in hu-SCID mice
Protocol: (§1) Each humanized mouse for the test was first intravenously injected with 2×10^7 PBMCs. After 10 days, each mouse was injected with OKT3 or control IgG (2 μg or 10 μg, IV or IP).
(§2) Clinical score measurement: as recommended by the Canadian Council for Animal Care (www.ccac.ca/en /standards/guidelines), we conducted preliminary studies to determine the most appropriate clinical symptoms and scoring criteria. […] Score: 0=normal activity; 1=normal activity, hairs upright, and tiptoe gait; 2=arched back, decreased activity, but there are still activities; 3=too few activities, but there are still activities when prompted; 4=dying. Mice with a clinical score of 4 were sacrificed.

[4] = tested on: hu-SCID mice; details: mouse, in vivo, ip
Protocol: as §1, §2

Molecule: CCCCCC(=O)O[C@]1(C(C)=O)CC[C@H]2[C@@H]3CCC4=CC(=O)CC[C@]4(C)[C@H]3CC[C@@]21C [PR2005, hydroxyprogesterone caproate, reference compound]
- Concentration of cytokines in the blood vs animals using OKT3 alone ([1]; PR2005 5 mg/kg IP before OKT3): substantially lower
- Inhibition of OKT3-induced immune (cytokine) storm in an animal model [1]: can inhibit the OKT3-induced immune storm
- Inhibition of OKT3-induced immune (cytokine) storm in an animal model ([1]; listed as hydroxyprogesterone caproate): can inhibit the cytokine storm
- Body temperature change after receiving OKT3 ([2]; PR2005 5 mg/kg IP, 48 hours and 24 hours before antibody injection): no significant changes in body temperature

Molecule: OKT3: muromonab-CD3 antibody used to induce the cytokine storm in hu-SCID mice
- Symptom observation ([3]; OKT3 2 μg IP): unaffected
- Mice needing to be euthanized ([3]; OKT3 2 μg IV): Two of four
- Response (symptoms) ([3]; OKT3 2 μg IV, within 1 h): moderate to severe
- Clinical score ([3]; OKT3 10 μg IP): moderate
- Response (symptoms) ([3]; OKT3 10 μg IV): severe
- Mice sacrificed ([3]; OKT3 10 μg IV, at 1 h): all mice were sacrificed
- Induced cytokines ([1]; OKT3 2 μg IP or IV, any time point): rarely detected
- Time of TNF-α peak ([1]; OKT3 10 μg IP): 1 h
- IFN-γ Concentration ([1]; 1 h): 7015 pg/mL
- IL-1β Concentration ([1]; 1 h): 44.0 pg/mL
- IL-2 Concentration ([1]; 1 h): 39.0 pg/mL
- IL-4 Concentration ([1]; 1 h): 61 pg/mL
- IL-5 Concentration ([1]; 1 h): 72 pg/mL
- IL-6 Concentration ([1]; 1 h): 96 pg/mL
- IL-10 Concentration ([1]; 1 h): 3319 pg/mL
- TNF-α Concentration ([1]; 1 h): 1409 pg/mL
- IFN-γ Concentration ([1]; 2 h): 23574 pg/mL
- IL-1β Concentration ([1]; 2 h): 77.5 pg/mL
- IL-2 Concentration ([1]; 2 h): 75.9 pg/mL
- IL-4 Concentration ([1]; 2 h): 182 pg/mL
- IL-5 Concentration ([1]; 2 h): 98 pg/mL
- IL-6 Concentration ([1]; 2 h): 160 pg/mL
- IL-10 Concentration ([1]; 2 h): 11001 pg/mL
- TNF-α Concentration ([1]; 2 h): 1127 pg/mL
- IFN-γ Concentration ([1]; 5 h): 25783 pg/mL
- IL-1β Concentration ([1]; 5 h): 97.4 pg/mL
- IL-2 Concentration ([1]; 5 h): 89.4 pg/mL
- IL-4 Concentration ([1]; 5 h): 259 pg/mL
- IL-5 Concentration ([1]; 5 h): 158 pg/mL
- IL-6 Concentration ([1]; 5 h): 252 pg/mL
- IL-10 Concentration ([1]; 5 h): 20052 pg/mL
- TNF-α Concentration ([1]; 5 h): 655 pg/mL
- Induction of cytokines (IL-1β, IL-2, IL-4, IL-5, IL-6, IL-10, IFN-γ) ([1]; OKT3 10 μg IP, concentrations gradually increased within 5 h): may induce production of multiple cytokines
- Mice dying and sacrificed [4]: one of 5
- Rectal temperature ([2]; OKT3 2 μg IP, 0 h): 37.7 °C
- Rectal temperature ([2]; OKT3 2 μg IP, 1 h): 35.6 °C
- Rectal temperature ([2]; OKT3 2 μg IP, 2 h): 34.8 °C
- Rectal temperature ([2]; OKT3 2 μg IP, 5 h): 35.4 °C
- Rectal temperature change ([2]; OKT3 2 μg IP, similar to control human IgG): moderate changes
- Rectal temperature ([2]; OKT3 2 μg IV, 0 h): 37.7 °C
- Rectal temperature ([2]; OKT3 2 μg IV, 1 h): 31.7 °C
- Rectal temperature ([2]; OKT3 2 μg IV, 2 h): 33.8 °C
- Rectal temperature ([2]; OKT3 2 μg IV, 5 h): 34.9 °C
- Transient hypothermia (rectal temperature) ([2]; OKT3 2 μg IV, at 1 h, partial recovery after 5 h): about 32 °C
- Rectal temperature decrease (from 37° C.) ([2]; OKT3 10 μg IP or IV, within 1 h): ≤ 32 °C
- Rectal temperature ([2]; OKT3 10 μg IP, 0 h): 37.7 °C
- Rectal temperature ([2]; OKT3 10 μg IP, 1 h): 31.7 °C
- Rectal temperature ([2]; OKT3 10 μg IP, 2 h): 31.1 °C
- Rectal temperature ([2]; OKT3 10 μg IP, 5 h): 30.6 °C
- Rectal temperature ([2]; OKT3 10 μg IV, 0 h): 37.7 °C
- Rectal temperature ([2]; OKT3 10 μg IV, 1 h): 31.9 °C
